The target of test [1] is T1, FcγRIa extracellular domain with C-terminal His tag (human, UniProt P12314 16-292).
T1 construct: extracellular domain; expressed in FreeStyle293 cells; analyte in Biacore; also called FcgRI; 1a
The test is described as follows: SPR (Biacore), captured antibody, FcγR as analyte; relative binding.
T1 sequence (P12314 16-292): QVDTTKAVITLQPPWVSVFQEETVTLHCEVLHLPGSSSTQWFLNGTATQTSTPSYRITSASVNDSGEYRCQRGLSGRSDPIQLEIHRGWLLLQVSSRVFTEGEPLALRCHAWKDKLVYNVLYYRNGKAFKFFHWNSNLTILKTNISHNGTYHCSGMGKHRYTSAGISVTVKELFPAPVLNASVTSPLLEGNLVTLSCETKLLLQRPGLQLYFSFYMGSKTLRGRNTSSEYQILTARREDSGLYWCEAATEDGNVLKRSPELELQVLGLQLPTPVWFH

The target of test [2] is T2, FcγRIIb extracellular domain with C-terminal His tag (human, UniProt P31994 43-217).
T2 construct: extracellular domain; expressed in FreeStyle293 cells; analyte in Biacore; also called FcgRIIb; 2b
T2 sequence (looked up): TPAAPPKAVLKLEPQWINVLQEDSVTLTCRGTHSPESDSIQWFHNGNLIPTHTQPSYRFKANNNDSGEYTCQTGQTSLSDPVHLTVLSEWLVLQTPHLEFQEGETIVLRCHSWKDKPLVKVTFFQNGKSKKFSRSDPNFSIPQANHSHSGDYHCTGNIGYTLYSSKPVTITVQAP
The description is as above.

Test [3] addresses T1, FcγRIa extracellular domain with …. The test can be described thus: SPR (Biacore); He/Con_1a divided by He/Con_2b (FcγRIIb as reference). On the technique in general: Surface plasmon resonance follows binding to a sensor surface in real time, without labels.
The target of test [4] is T3, FcγRIa extracellular domain with C-terminal His tag (human, UniProt P12314 16-292).
T3 construct: extracellular domain; soluble analyte in Biacore; also called FcgRI; not shown: His tag at the C terminus
The test can be described thus: SPR, binding relative to GpH7-A5/GpH7-B3/GpL16-k0 = 100.
T3 sequence (P12314 16-292): as the sequence (P12314 16-292) above

In test [5] the target is T4, FcγRIIb extracellular domain with C-terminal His tag (human, UniProt P31994 43-217).
T4 construct: extracellular domain; soluble analyte in Biacore; also called FcgRIIb; not shown: His tag at the C terminus
T4 sequence (looked up): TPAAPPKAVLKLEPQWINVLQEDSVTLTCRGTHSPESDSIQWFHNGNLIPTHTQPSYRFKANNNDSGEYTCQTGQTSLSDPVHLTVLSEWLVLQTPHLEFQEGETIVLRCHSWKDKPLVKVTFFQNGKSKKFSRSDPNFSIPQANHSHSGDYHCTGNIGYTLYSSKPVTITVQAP
The test is described as above.

In test [6] the target is T3, FcγRIa extracellular domain with …. The test is described as follows: SPR; He/Con_1a divided by He/Con_2b (FcγRIa against FcγRIIb). The protocol:
The heterodimerized antibodies He Abs in which one of the H chains was introduced with an alteration were assayed for their binding activities to each activating FcγR and inhibitory FcγR according to the method described in Example 4. […] The activating FcγRs in FIGS. 26, 27, 28, and 29 are FcγRIa, FcγRIIa (R), FcγRIIa (H), and FcγRIIIa, respectively.
Analysis of interaction between objective antibody and the FcγR was carried out using Biacore T100 (GE Healthcare). HBS-EP+ (GE Healthcare) was used as the running buffer, and the measurement temperature was set to 25° C. Chips produced by immobilizing the antigen peptide by the amine coupling method to a Series S Sencor Chip CM5 (GE Healthcare), or alternatively, chips produced by allowing preliminarily biotinylated antigen peptides to interact with and immobilize onto a Series S Sensor Chip SA (certified) (GE Healthcare) were used. Antibodies of interest were captured onto an antigen peptide-immobilized chip, and allowed to interact to each FcγR diluted with running buffer. To regenerate and repeatedly use the chip, the antibodies captured on the chip were washed off by reacting 10 mM glycine-HCl, pH 1.5.

B1: GpH7-A5/GpH7-B3 variant D265_16H/GpL16-k0 (antibody, human IgG1, kappa)
heavy 1: not shown
heavy 2: not shown
light: DIVMTQSPLSLPVTPGEPASISCQASESLVHSNRNTYLHWYLQKPGQSPQLLIYKVSNRFSGVPDRFSGSGSGTDFTLKISRVEAEDVGVYYCSQNTHVPPTFGQGTKVEIERTVAAPSVFIFPPSDEQLKSGTASVVCLLNNFYPREAKVQWKVDNALQSGNSQESVTEQDSKDSTYSLSSTLTLSKADYEKHKVYACEVTHQGLSSPVTKSFNRGEC
notes: He Ab; IgG1, mutation in one H chain
As for B1, the He/Con_1a in test [1] was 85.4 % of HeCon Ab (GpH7-A5/GpH7-B3/GpL16-k0 = 100). In test [2], the He/Con_2b is 38.3 % of HeCon Ab (GpH7-A5/GpH7-B3/GpL16-k0 = 100). Also, the “He_1a/2b (Ia/IIb)” value in test [3] was 2.23 ratio.

B2: GpH7-A5/GpH7-B3 variant D270_01G/GpL16-k0 (antibody, human IgG1, kappa)
heavy 1: not shown
heavy 2: not shown
light: DIVMTQSPLSLPVTPGEPASISCQASESLVHSNRNTYLHWYLQKPGQSPQLLIYKVSNRFSGVPDRFSGSGSGTDFTLKISRVEAEDVGVYYCSQNTHVPPTFGQGTKVEIERTVAAPSVFIFPPSDEQLKSGTASVVCLLNNFYPREAKVQWKVDNALQSGNSQESVTEQDSKDSTYSLSSTLTLSKADYEKHKVYACEVTHQGLSSPVTKSFNRGEC
notes: change in the GpH7-B3 H chain only; also called He Ab
Regarding B2, the He/Con_1a in test [4] is 76.3 % of control. For the same molecule, the He/Con_2b in test [5] is 30.5 % of control. Besides, in test [6], the “He_1a/2b (Ia/IIb)” value was determined as 2.5 ratio.

B3: GpH7-A5/GpH7-B3 variant V266_05P/GpL16-k0 (antibody, human IgG1, kappa)
heavy 1: not shown
heavy 2: not shown
light: DIVMTQSPLSLPVTPGEPASISCQASESLVHSNRNTYLHWYLQKPGQSPQLLIYKVSNRFSGVPDRFSGSGSGTDFTLKISRVEAEDVGVYYCSQNTHVPPTFGQGTKVEIERTVAAPSVFIFPPSDEQLKSGTASVVCLLNNFYPREAKVQWKVDNALQSGNSQESVTEQDSKDSTYSLSSTLTLSKADYEKHKVYACEVTHQGLSSPVTKSFNRGEC
notes: as for B1
As for B3, the He/Con_1a in test [1] is 71.9 % of HeCon Ab (GpH7-A5/GpH7-B3/GpL16-k0 = 100). Besides, the He/Con_2b in test [2] is 0.4 % of HeCon Ab (GpH7-A5/GpH7-B3/GpL16-k0 = 100). For the same molecule, the “He_1a/2b (Ia/IIb)” value in test [3] was found to be 205 ratio.

B4: GpH7-A5/GpH7-B3 variant V266_11K/GpL16-k0 (antibody, human IgG1, kappa)
heavy 1: not shown
heavy 2: not shown
light: DIVMTQSPLSLPVTPGEPASISCQASESLVHSNRNTYLHWYLQKPGQSPQLLIYKVSNRFSGVPDRFSGSGSGTDFTLKISRVEAEDVGVYYCSQNTHVPPTFGQGTKVEIERTVAAPSVFIFPPSDEQLKSGTASVVCLLNNFYPREAKVQWKVDNALQSGNSQESVTEQDSKDSTYSLSSTLTLSKADYEKHKVYACEVTHQGLSSPVTKSFNRGEC
notes: as for B1
On to B4, for which, in test [1], the He/Con_1a was 64.4 % of HeCon Ab (GpH7-A5/GpH7-B3/GpL16-k0 = 100). The He/Con_2b in test [2] was 1 % of HeCon Ab (GpH7-A5/GpH7-B3/GpL16-k0 = 100). In test [3], the “He_1a/2b (Ia/IIb)” value was 63.5 ratio.

B5: GpH7-A5/GpH7-B3 variant V266_13S/GpL16-k0 (antibody, human IgG1, kappa)
heavy 1: not shown
heavy 2: not shown
light: DIVMTQSPLSLPVTPGEPASISCQASESLVHSNRNTYLHWYLQKPGQSPQLLIYKVSNRFSGVPDRFSGSGSGTDFTLKISRVEAEDVGVYYCSQNTHVPPTFGQGTKVEIERTVAAPSVFIFPPSDEQLKSGTASVVCLLNNFYPREAKVQWKVDNALQSGNSQESVTEQDSKDSTYSLSSTLTLSKADYEKHKVYACEVTHQGLSSPVTKSFNRGEC
notes: as for B1
In the case of B5, in test [1], the He/Con_1a is 90.6 % of HeCon Ab (GpH7-A5/GpH7-B3/GpL16-k0 = 100). Further, in test [2], the He/Con_2b was 54.4 % of HeCon Ab (GpH7-A5/GpH7-B3/GpL16-k0 = 100). Besides, the “He_1a/2b (Ia/IIb)” value in test [3] amounted to 1.67 ratio.

B6: GpH7-A5/GpH7-B3 variant D265_20W/GpL16-k0 (antibody, human IgG1, kappa)
heavy 1: not shown
heavy 2: not shown
light: DIVMTQSPLSLPVTPGEPASISCQASESLVHSNRNTYLHWYLQKPGQSPQLLIYKVSNRFSGVPDRFSGSGSGTDFTLKISRVEAEDVGVYYCSQNTHVPPTFGQGTKVEIERTVAAPSVFIFPPSDEQLKSGTASVVCLLNNFYPREAKVQWKVDNALQSGNSQESVTEQDSKDSTYSLSSTLTLSKADYEKHKVYACEVTHQGLSSPVTKSFNRGEC
notes: as for B1
For the molecule B6, in test [1], the He/Con_1a was 51.5 % of HeCon Ab (GpH7-A5/GpH7-B3/GpL16-k0 = 100). For the same molecule, in test [2], the He/Con_2b is 1.1 % of HeCon Ab (GpH7-A5/GpH7-B3/GpL16-k0 = 100). Further, in test [3], the “He_1a/2b (Ia/IIb)” value worked out at 45.6 ratio.

B7: GpH7-A5/GpH7-B3 variant D270_02A/GpL16-k0 (antibody, human IgG1, kappa)
heavy 1: not shown
heavy 2: not shown
light: DIVMTQSPLSLPVTPGEPASISCQASESLVHSNRNTYLHWYLQKPGQSPQLLIYKVSNRFSGVPDRFSGSGSGTDFTLKISRVEAEDVGVYYCSQNTHVPPTFGQGTKVEIERTVAAPSVFIFPPSDEQLKSGTASVVCLLNNFYPREAKVQWKVDNALQSGNSQESVTEQDSKDSTYSLSSTLTLSKADYEKHKVYACEVTHQGLSSPVTKSFNRGEC
notes: as for B2
Consider B7, for which the He/Con_1a in test [4] was 71.5 % of control. The He/Con_2b in test [5] was 48.3 % of control. Moreover, the “He_1a/2b (Ia/IIb)” value in test [6] was determined as 1.48 ratio.

The record behind these values is patent US20150344570A1 (published 2015).
